Laboratory results as given in the supplement of paper PMC11316812.
± gives the standard deviation of the averaged measurements.

Assays:
MCF7 = test: percentage of EdU-negative (G0-arrested) nuclei per well, 72 h; higher = more G0 arrest; settings: reference: sequence is the full UniProt precursor, the tested protein was the secreted form or ectodomain
hTERT-HMEC = test: as above; settings: reference: sequence is the full UniProt precursor, the tested protein was the secreted form or ectodomain
[1] = protein concentration 0.0225 µM
[2] = protein concentration 0.01125 µM
[3] = protein concentration 0.1125 µM
[4] = protein concentration 0.0214725 µM
[5] = protein concentration 0.214725 µM
[6] = protein concentration 0.0257143 µM
[7] = protein concentration 0.257143 µM
[8] = protein concentration 0.0195 µM
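Note: secreted proteins added to cultured cells, EdU pulse at the end, nuclei found by Hoechst imaging, EdU status from nuclear versus surrounding ring intensity ratio, PBS as neutral control.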

Sequence: MICQKFCVVLLHWEFIYVITAFNLSYPITPWRFKLSCMPPNSTYDYFLLPAGLSKNTSNSNGHYETAVEPKFNSSGTHFSNLSKTTFHCCFRSEQDRNCSLCADNIEGKTFVSTVNSLVFQQIDANWNIQCWLKGDLKLFICYVESLFKNLFRNYNYKVHLLYVLPEVLEDSPLVPQKGSFQMVHCNCSVHECCECLVPVPTAKLNDTLLMCLKITSGGVIFQSPLMSVQPINMVKPDPPLGLHMEITDDGNLKISWSSPPLVPFPLQYQVKYSENSTTVIREADKIVSATSLLVDSILPGSSYEVQVRGKRLDGPGIWSDWSTPRVFTTQDVIYFPPKILTSVGSNVSFHCIYKKENKIVPSKEIVWWMNLAEKIPQSQYDVVSDHVSKVTFFNLNETKPRGKFTYDAVYCCNEHECHHRYAELYVIDVNINISCETDGYLTKMTCRWSTSTIQSLAESTLQLRYHRSSLYCSDIPSIHPISEPKDCYLQSDGFYECIFQPIFLLSGYTMWIRINHSLGSLDSPPTCVLPDSVVKPLPPSSVKAEITINIGLLKISWEKPVFPENNLQFQIRYGLSGKEVQWKMYEVYDAKSKSVSLPVPDLCAVYAVQVRCKRLDGLGYWSNWSNPAYTVVMDIKVPMRGPEFWRIINGDTMKKEKNVTLLWKPLMKNDSLCSVQRYVINHHTSCNGTWSEDVGNHTKFTFLWTEQAHTVTVLAINSIGASVANFNLTFSWPMSKVNIVQSLSAYPLNSSCVIVSWILSPSDYKLMYFIIEWKNLNEDGEIKWLRISSSVKKYYIHDHFIPIEKYQFSLYPIFMEGVGKPKIINSFTQDDIEKHQSDAGLYVIVPVIISSSILLLGTLLISHQRMKKLFWEDVPNPKNCSWAQGLNFQKPETFEHLFIKHTASVTCGPLLLEPETISEDISVDTSWKNKDEMMPTTVVSLLSTTDLEKGSVCISDQFNSVNFSEAEGTEVTYEDESQRQPFVKYATLISNSKPSETGEEQGLINSSVTKCFSSKNSPLKDSFSNSSWEIEAQAFFILSDQHPNIISPHLTFSEGLDELLKLEGNFPEENNDKKSIYYLGVTSIKKRESGVLLTDKSRVSCPFPAPCLFTDIRVLQDSCSHFVENNINLGTSSKKTFASYMPQFQTCSTQTHKIMENKMCDLTV
- percentage of EdU-negative (MCF7; protein concentration 0.012 µM): 23.4 ± 3.1%
- percentage of EdU-negative (MCF7; protein concentration 0.12 µM): 21.2 ± 0.96%
- percentage of EdU-negative (hTERT-HMEC; protein concentration 0.012 µM): 5.06 ± 0.43%
- percentage of EdU-negative (hTERT-HMEC; protein concentration 0.12 µM): 5.17 ± 0.64%

Sequence: MIFLLLMLSLELQLHQIAALFTVTVPKELYIIEHGSNVTLECNFDTGSHVNLGAITASLQKVENDTSPHRERATLLEEQLPLGKASFHIPQVQVRDEGQYQCIIIYGVAWDYKYLTLKVKASYRKINTHILKVPETDEVELTCQATGYPLAEVSWPNVSVPANTSHSRTPEGLYQVTSVLRLKPPPGRNFSCVFWNTHVRELTLASIDLQSQMEPRTHPTWLLHIFIPFCIIAFIFIATVIALRKQLCQKLYSSKDTTKRPVTTTKREVNSAI [Q9BQ51]
- percentage of EdU-negative (MCF7; [1]): 23.9 ± 0.28%
- percentage of EdU-negative (MCF7; protein concentration 0.225 µM): 24.6 ± 0.78%
- percentage of EdU-negative (hTERT-HMEC; [1]): 4.79 ± 0.078%
- percentage of EdU-negative (hTERT-HMEC; protein concentration 0.225 µM): 7.37 ± 0.34%

Sequence: MIFLTALPLFWIMISASRGGHWGAWMPSSISAFEGTCVSIPCRFDFPDELRPAVVHGVWYFNSPYPKNYPPVVFKSRTQVVHESFQGRSRLLGDLGLRNCTLLLSNVSPELGGKYYFRGDLGGYNQYTFSEHSVLDIVNTPNIVVPPEVVAGTEVEVSCMVPDNCPELRPELSWLGHEGLGEPAVLGRLREDEGTWVQVSLLHFVPTREANGHRLGCQASFPNTTLQFEGYASMDVKYPPVIVEMNSSVEAIEGSHVSLLCGADSNPPPLLTWMRDGTVLREAVAESLLLELEEVTPAEDGVYACLAENAYGQDNRTVGLSVMYAPWKPTVNGTMVAVEGETVSILCSTQSNPDPILTIFKEKQILSTVIYESELQLELPAVSPEDDGEYWCVAENQYGQRATAFNLSVEFAPVLLLESHCAAARDTVQCLCVVKSNPEPSVAFELPSRNVTVNESEREFVYSERSGLVLTSILTLRGQAQAPPRVICTARNLYGAKSLELPFQGAHRLMWAKIGPVGAVVAFAILIAIVCYITQTRRKKNVTESPSFSAGDNPPVLFSSDFRISGAPEKYESERRLGSERRLLGLRGEPPELDLSYSHSDLGKRPTKDSYTLTEELAEYAEIRVK
- percentage of EdU-negative (MCF7; [2]): 28.5 ± 0.33%
- percentage of EdU-negative (MCF7; [3]): 28.73 ± 0.11%
- percentage of EdU-negative (hTERT-HMEC; [2]): 5.66 ± 0.36%
- percentage of EdU-negative (hTERT-HMEC; [3]): 6.55 ± 0.84%

Sequence: MIFPWKCQSTQRDLWNIFKLWGWTMLCCDFLAHHGTDCWTYHYSEKPMNWQRARRFCRDNYTDLVAIQNKAEIEYLEKTLPFSRSYYWIGIRKIGGIWTWVGTNKSLTEEAENWGDGEPNNKKNKEDCVEIYIKRNKDAGKWNDDACHKLKAALCYTASCQPWSCSGHGECVEIINNYTCNCDVGYYGPQCQFVIQCEPLEAPELGTMDCTHPLGNFSFSSQCAFSCSEGTNLTGIEETTCGPFGNWSSPEPTCQVIQCEPLSAPDLGIMNCSHPLASFSFTSACTFICSEGTELIGKKKTICESSGIWSNPSPICQKLDKSFSMIKEGDYNPLFIPVAVMVTAFSGLAFIIWLARRLKKGKKSKRSMNDPY
- percentage of EdU-negative (MCF7; [1]): 24.2 ± 0.78%
- percentage of EdU-negative (MCF7; protein concentration 0.225 µM): 32.8 ± 4%
- percentage of EdU-negative (hTERT-HMEC; [1]): 4.92 ± 0.1%
- percentage of EdU-negative (hTERT-HMEC; protein concentration 0.225 µM): 11.1 ± 1.2%

Sequence: MIHGRSVLHIVASLIILHLSGATKKGTEKQTTSETQKSVQCGTWTKHAEGGIFTSPNYPSKYPPDRECIYIIEAAPRQCIELYFDEKYSIEPSWECKFDHIEVRDGPFGFSPIIGRFCGQQNPPVIKSSGRFLWIKFFADGELESMGFSARYNFTPDPDFKDLGALKPLPACEFEMGGSEGIVESIQIMKEGKATASEAVDCKWYIRAPPRSKIYLRFLDYEMQNSNECKRNFVAVYDGSSSVEDLKAKFCSTVANDVMLRTGLGVIRMWADEGSRNSRFQMLFTSFQEPPCEGNTFFCHSNMCINNTLVCNGLQNCVYPWDENHCKEKRKTSLLDQLTNTSGTVIGVTSCIVIILIIISVIVQIKQPRKKYVQRKSDFDQTVFQEVFEPPHYELCTLRGTGATADFADVADDFENYHKLRRSSSKCIHDHHCGSQLSSTKGSRSNLSTRDASILTEMPTQPGKPLIPPMNRRNILVMKHSYSQDAADACDIDEIEEVPTTSHRLSRHDKAVQRFCLIGSLSKHESEYNTTRV [Q8TDF5]
- percentage of EdU-negative (MCF7; [4]): 23.53 ± 0.037%
- percentage of EdU-negative (MCF7; [5]): 26.76 ± 0.058%
- percentage of EdU-negative (hTERT-HMEC; [4]): 4.64 ± 0.48%
- percentage of EdU-negative (hTERT-HMEC; [5]): 7.76 ± 0.38%

Sequence: MIHTNLKKKFSCCVLVFLLFAVICVWKEKKKGSYYDSFKLQTKEFQVLKSLGKLAMGSDSQSVSSSSTQDPHRGRQTLGSLRGLAKAKPEASFQVWNKDSSSKNLIPRLQKIWKNYLSMNKYKVSYKGPGPGIKFSAEALRCHLRDHVNVSMVEVTDFPFNTSEWEGYLPKESIRTKAGPWGRCAVVSSAGSLKSSQLGREIDDHDAVLRFNGAPTANFQQDVGTKTTIRLMNSQLVTTEKRFLKDSLYNEGILIVWDPSVYHSDIPKWYQNPDYNFFNNYKTYRKLHPNQPFYILKPQMPWELWDILQEISPEEIQPNPPSSGMLGIIIMMTLCDQVDIYEFLPSKRKTDVCYYYQKFFDSACTMGAYHPLLYEKNLVKHLNQGTDEDIYLLGKATLPGFRTIHC
- percentage of EdU-negative (MCF7; [6]): 23.7 ± 0.62%
- percentage of EdU-negative (MCF7; [7]): 26.3 ± 1.7%
- percentage of EdU-negative (hTERT-HMEC; [6]): 4.71 ± 0.62%
- percentage of EdU-negative (hTERT-HMEC; [7]): 4.48 ± 0.15%

Sequence: MIIDSSRIPSFTQLHSTMTRAPLLLLCVALVLLGHVNGATVRNEDKWKPLNNPRNRDLFFRRLQAYFKGRGLDLGTFPNPFPTNENPRPLSFQSELTASASADYEEQKNSFHNYLKG [Q6UXQ4]
- percentage of EdU-negative (MCF7; [8]): 24.6 ± 2.1%
- percentage of EdU-negative (MCF7; protein concentration 0.195 µM): 25.2 ± 1%
- percentage of EdU-negative (hTERT-HMEC; [8]): 4.53 ± 0.63%
- percentage of EdU-negative (hTERT-HMEC; protein concentration 0.195 µM): 7.36 ± 0.4%

Sequence: MIIVAHVLLILLGATEILQADLLPDEKISLLPPVNFTIKVTGLAQVLLQWKPNPDQEQRNVNLEYQVKINAPKEDDYETRITESKCVTILHKGFSASVRTILQNDHSLLASSWASAELHAPPGSPGTSIVNLTCTTNTTEDNYSRLRSYQVSLHCTWLVGTDAPEDTQYFLYYRYGSWTEECQEYSKDTLGRNIACWFPRTFILSKGRDWLAVLVNGSSKHSAIRPFDQLFALHAIDQINPPLNVTAEIEGTRLSIQWEKPVSAFPIHCFDYEVKIHNTRNGYLQIEKLMTNAFISIIDDLSKYDVQVRAAVSSMCREAGLWSEWSQPIYVGNDEHKPLREWFVIVIMATICFILLILSLICKICHLWIKLFPPIPAPKSNIKDLFVTTNYEKAGSSETEIEVICYIEKPGVETLEDSVF
- percentage of EdU-negative (MCF7; [1]): 25.4 ± 1.1%
- percentage of EdU-negative (MCF7; protein concentration 0.225 µM): 25.9 ± 1.3%
- percentage of EdU-negative (hTERT-HMEC; [1]): 4.86 ± 0.92%
- percentage of EdU-negative (hTERT-HMEC; protein concentration 0.225 µM): 5.18 ± 0.52%
